Consider 1 molecule from article PMC9598763, “WDR73 Depletion Destabilizes PIP4K2C Activity and Impairs Focal Adhesion Formation in Galloway–Mowat Syndrome” (Biology, 2022).

Test [1] concerns the target T1, PIP4K2A on the HuProt human proteome microarray (human, UniProt P48426 1-406).
T1 construct: PIP4K2A, human; spotted on the array as N-terminal GST fusion; source: bought: HuProt v4.0 20K Human Proteome Microarray (CDI Laboratories), purified human proteins; not shown: GST, N-terminal, kept
T1 sequence (looked up): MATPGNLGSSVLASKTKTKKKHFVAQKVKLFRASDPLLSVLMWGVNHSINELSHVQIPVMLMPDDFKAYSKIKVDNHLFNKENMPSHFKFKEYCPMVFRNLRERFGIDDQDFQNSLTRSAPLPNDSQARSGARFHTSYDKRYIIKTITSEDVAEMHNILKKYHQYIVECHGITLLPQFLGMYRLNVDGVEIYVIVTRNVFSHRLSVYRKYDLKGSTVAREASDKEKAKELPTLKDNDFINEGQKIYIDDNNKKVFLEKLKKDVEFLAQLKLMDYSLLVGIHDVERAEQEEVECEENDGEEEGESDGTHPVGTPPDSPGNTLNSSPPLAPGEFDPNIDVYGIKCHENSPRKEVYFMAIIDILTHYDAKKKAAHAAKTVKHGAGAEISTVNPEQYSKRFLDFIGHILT
Put plainly: peptide or protein array; Cy3-tagged His-WDR73 incubated on the HuProt v4.0 20K Human Proteome Microarray (purified human proteins as N-terminal GST fusions) overnight at 4 °C, washed, scanned; candidates by Z-score > 3. The conditions noted are these: both partners purified.

Test [2] has as its target T2, PIP4K2C on the HuProt human proteome microarray (human, UniProt Q8TBX8 1-421).
T2 construct: PIP4K2C, phospholipid kinase, human; spotted on the array as N-terminal GST fusion; source: bought: HuProt v4.0 20K Human Proteome Microarray (CDI Laboratories), purified human proteins; not shown: GST, N-terminal, kept
T2 sequence (looked up): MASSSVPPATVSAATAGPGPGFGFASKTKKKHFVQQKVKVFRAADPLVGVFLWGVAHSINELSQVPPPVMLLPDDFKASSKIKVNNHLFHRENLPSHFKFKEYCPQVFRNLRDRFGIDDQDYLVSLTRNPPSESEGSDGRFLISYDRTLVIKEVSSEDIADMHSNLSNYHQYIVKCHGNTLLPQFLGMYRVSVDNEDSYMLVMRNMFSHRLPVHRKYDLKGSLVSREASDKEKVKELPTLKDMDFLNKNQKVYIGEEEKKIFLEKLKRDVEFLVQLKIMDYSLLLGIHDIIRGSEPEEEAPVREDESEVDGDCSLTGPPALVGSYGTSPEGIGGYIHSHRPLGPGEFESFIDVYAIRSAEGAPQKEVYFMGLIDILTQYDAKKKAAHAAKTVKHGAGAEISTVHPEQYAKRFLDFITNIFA
The description is as above. As to conditions: both partners purified.

B1: Cy3-tagged His-WDR73 (natural protein, human, UniProt Q6P4I2 1-378, looked up)
chain: MDPGDDWLVESLRLYQDFYAFDLSGATRVLEWIDDKGVFVAGYESLKKNEILHLKLPLRLSVKENKGLFPERDFKVRHGGFSDRSIFDLKHVPHTRLLVTSGLPGCYLQVWQVAEDSDVIKAVSTIAVHEKEESLWPRVAVFSTLAPGVLHGARLRSLQVVDLESRKTTYTSDVSDSEELSSLQVLDADTFAFCCASGRLGLVDTRQKWAPLENRSPGPGSGGERWCAEVGSWGQGPGPSIASLGSDGRLCLLDPRDLCHPVSSVQCPVSVPSPDPELLRVTWAPGLKNCLAISGFDGTVQVYDATSWDGTRSQDGTRSQVEPLFTHRGHIFLDGNGMDPAPLVTTHTWHPCRPRTLLSATNDASLHVWDWVDLCAPR
modifications: labeled with Cy3 (CyDye Protein Labelling CY3 MONO 5-PACK, GE)
notes: WDR73 (WD40-repeat-containing protein), human; Probe of the HuProt microarray; also called recombinant His-WDR73 fusion protein; purified human WDR73 protein; source: recombinant, purified by MerryBio Co., Ltd
For B1, the binding result in test [1] and in test [2] was “binds” each time.
